Experimental data from patent US5827666A, “Synthetic multiple tandem repeat mucin and mucin-like peptides, and uses thereof” (priority 1994, dated 1998).

Assay: circular dichroism at 25-90° C.
Type: physicochemical
Settings: 0.01M phosphate buffer pH 7.2

TITPPQAMGPNLVLPDQKPPSRQSQTGSKVATQRPQTNESAPRSVAPTTVGPKRIGTGDR (TITPPQAMGPNLVLPDQKPPSRQSQTGSKVATQRPQTNESAPRSVAPTTVGPKRIGTGDR) [PRN60, 60 amino acid proline-rich domain of feline leukemia virus gp-70]
decrease of CD intensity at 198 nm at 90° C. as compared to 25° C.: 29%
